Laboratory results reported in patent publication US8846873B2, “Antibodies directed to GPNMB and uses thereof” (Celldex Therapeutics, Inc., priority 2004, dated 2014).

What was measured:
[1] = system: SK-MEL-5 melanoma xenografts; test: Human SK-MEL-5 melanoma xenograft in athymic mice; format: in vivo
Method: Test Animals: Five- to 6-week old athymic mice (CD-1 nu/nu females), used for human tumor xenografts, were obtained from Harlan Laboratories (Indianapolis, Ind.). Animals were housed in specific pathogen-free conditions, according to the guidelines of the Association for Assessment and Accreditation of Laboratory Animal Care International (AAALAC International). Test animals were provided pelleted food and water ad libitum and kept in a room with conditioned ventilation (HVAC), temperature (22°±2° C.), relative humidity (55%±15%), and photoperiod (12 hr). All studies were carried out with approved institutional animal care and use protocols.
Human Melanoma Xenograft Models. The tumor inhibitory activity of the CR011-MMAE immunoconjugate was measured in an anti-tumor xenograft model using athymic mice, according to published methods (see Geran et al., Cancer Chemother. Rep. 3:1-104 (1972)). […] When tumors became established (10-20 days), the animals were pair-matched into groups (n=6 mice/group), and treatment was administered by intravenous injection (tail vein).
The SK-MEL-2 human melanoma (ATCC #HTB-68) was derived from a metastatic site (skin of thigh) of a person with malignant melanoma, and the SK-MEL-5 human melanoma (ATCC #HTB-70) was derived from a metastatic site (axillary lymph node) of a person with malignant melanoma (see Fogh et al., J. Natl. Cancer Inst. 59: 221-226 (1977)). Both cell lines were obtained from the American Type Culture Collection.
The effects of treatment were monitored by repetitive tumor measurements across 2 diameters with Vernier calipers; tumor size (in mg) was calculated using a standard formula, (W^2×L)/2, assuming a specific gravity of 1.0. Tumor size and body weights were assessed twice weekly. Mice were examined daily, however, and moribund animals were humanely euthanized if clinical indications of excessive pain or distress were noted (i.e., prostration, hunched posture, paralysis/paresis, distended abdomen, ulcerations, abscesses, seizures, and/or hemorrhages). Animals with tumors exceeding 2,000 mg were removed from the study and euthanized humanely.
Soon after the commencement of treatment with paclitaxel, however, significant tumor growth inhibition was observed (P≦0.039) at day 3 after treatment began, and this anti-tumor effect continued, producing 100% growth inhibition (stasis). The responses of SK-MEL-5-bearing test animals to vinblastine and paclitaxel were short-lived. After cessation of treatment at the maximally tolerated doses, tumors resumed rapid, progressive growth.

[2] = Pharmacokinetics of CR011-vcMMAE after intravenous administration (sandwich ELISA of serum); format: in vivo, athymic mice; conditions: for A (pre-exponential constant for alpha phase) / AUC (total area under the curve from 0 to infinity) / Alpha (exponential rate constant for alpha phase) / Alpha-Half Life / B (pre-exponential constant for beta phase) / Beta (exponential rate constant for beta phase) / Beta- Half Life / Cl (total or systemic clearance) / Cmax / Volume (volume of central compartment) / Vss (steady-state volume of distribution): athymic mice, serum
Excerpt: Abbreviations: A: Pre-exponential constant for alpha phase; Alpha: Exponential rate constant for alpha phase; AUC Total area under the curve from 0 to infinity; B: Pre-exponential constant for beta phase; Beta: Exponential rate constant for beta phase; Cl: Total or systemic clearance; Cmax: Maximum observed concentration; MRT: Mean residence time; Volume: Volume of central compartment; Vss: Steady-state volume of distribution.

[3] = system: MOLT-4 (acute T cell lymphoblastic leukemia); test: Clonogenic assay with 1.15.1-AE (methylcellulose); format: cell-based
Method: (§1) Lymphoma or leukemia cell lines were mixed with methylcellulose base media (R&D Systems, USA) and in various concentrations of unconjugated and Auristatin E-conjugated 1.15.1 antibody before plating onto 6-well tissue culture plates (Becton Dickinson, Franklin Lakes, N.J., USA). […] Plates were incubated at 37° C. and examined daily. On days 14-18, colonies on the plates were counted.

[4] = system: SUP-M2 (ALCL); test: Clonogenic assay with 1.15.1-AE (methylcellulose); format: cell-based
Method: as §1

[5] = system: SU-DHL-1 (ALCL); test: Clonogenic assay with 1.15.1-AE (methylcellulose); format: cell-based
Method: as §1

[6] = system: CCRF-CEM (acute T cell lymphoblastic leukemia); test: Clonogenic assay with 1.15.1-AE (methylcellulose); format: cell-based
Method: as §1

[7] = system: U937 (histiocytic lymphoma, monocytic); test: Clonogenic assay with 1.15.1-AE (methylcellulose); format: cell-based
Method: as §1

[8] = system: KG-1 (acute myelogenous leukemia); test: Clonogenic assay with 1.15.1-AE (methylcellulose); format: cell-based
Method: as §1

[9] = system: PL-21 (acute myeloid leukemia); test: Clonogenic assay with 1.15.1-AE (methylcellulose); format: cell-based
Method: as §1

[10] = system: THP-1 (acute monocytic leukemia); test: Clonogenic assay with 1.15.1-AE (methylcellulose); format: cell-based
Method: as §1

[11] = system: DEL (ALCL); test: Clonogenic assay with 1.15.1-AE (methylcellulose); format: cell-based
Method: as §1

[12] = system: SR (anaplastic large T cell lymphoma, ALCL); test: Clonogenic assay with 1.15.1-AE (methylcellulose); format: cell-based
Method: as §1

[13] = system: Jurkat (acute T-cell leukemia); test: Clonogenic assay with 1.15.1-AE (methylcellulose); format: cell-based
Method: as §1

[14] = system: Karpas 299 (ALCL); test: Clonogenic assay with 1.15.1-AE (methylcellulose); format: cell-based
Method: as §1

With “CR011-vcMMAE: anti-GPNMB antibody 1.15.1 coupled to monomethylauristatin E via protease-sensitive valine-citrulline linker” the complete regressions ([1]; 2.5 mg/kg/treatment) was “Complete regressions occurred”, the “time after treatment began to significant anti-tumor effects” value ([1]; 10 mg/kg/treatment, compared to PBS-treated controls) was 10 days and the “time after treatments began to significant anti-tumor effects” value ([1]; 10 mg/kg/treatment, compared to saline) was 7 days. For the same substance, the anti-tumor effect ([1]; CR011-ONC-3, i.v., vs saline and PBS control groups) was “Substantial tumor growth inhibition, as well as tumor growth delay and complete regressions”, the “doses at which complete regressions occurred” value ([1]; i.v., q4d x4) was > 2.5 mg/kg and the “toxicity (mortality, body weight or weight gain)” value ([1]; treated tumor-bearing animals) was “no indication of toxicity”. For the same substance, the “A (pre-exponential constant for alpha phase)” value ([2]; 1 mg/kg intravenous) was 8.97 µg/mL, the “AUC (total area under the curve from 0 to infinity)” value ([2]; 1 mg/kg intravenous) was 3712 µg·h/mL and the “Alpha (exponential rate constant for alpha phase)” value ([2]; 1 mg/kg intravenous) was 0.179 h⁻¹. The “Alpha-Half Life” value ([2]; 1 mg/kg intravenous) was 0.162 days, the “B (pre-exponential constant for beta phase)” value ([2]; 1 mg/kg intravenous) was 9.82 µg/mL and the “Beta (exponential rate constant for beta phase)” value ([2]; 1 mg/kg intravenous) was 0.00269 h⁻¹. For the same substance, the “Beta- Half Life” value ([2]; 1 mg/kg intravenous) was 10.8 days, the “Cl (total or systemic clearance)” value ([2]; 1 mg/kg intravenous) was 6.46 mL/day/kg and the Cmax ([2]; 1 mg/kg intravenous) was 18.8 µg/mL. The “Volume (volume of central compartment)” value ([2]; 1 mg/kg intravenous) was 0.0532 L/kg, the “Vss (steady-state volume of distribution)” value ([2]; 1 mg/kg intravenous) was 0.099 L/kg and the “A (pre-exponential constant for alpha phase)” value ([2]; 10 mg/kg intravenous) was 74.6 µg/mL. The “AUC (total area under the curve from 0 to infinity)” value ([2]; 10 mg/kg intravenous) was 41210 µg·h/mL, the “Alpha (exponential rate constant for alpha phase)” value ([2]; 10 mg/kg intravenous) was 0.0812 h⁻¹ and the “Alpha-Half Life” value ([2]; 10 mg/kg intravenous) was 0.3555 days. For the same substance, the “B (pre-exponential constant for beta phase)” value ([2]; 10 mg/kg intravenous) was 113 µg/mL, the “Beta (exponential rate constant for beta phase)” value ([2]; 10 mg/kg intravenous) was 0.00281 h⁻¹ and the “Beta- Half Life” value ([2]; 10 mg/kg intravenous) was 10.3 days. The “Cl (total or systemic clearance)” value ([2]; 10 mg/kg intravenous) was 5.83 mL/day/kg, the Cmax ([2]; 10 mg/kg intravenous) was 188 µg/mL and the “Volume (volume of central compartment)” value ([2]; 10 mg/kg intravenous) was 0.0532 L/kg. The “Vss (steady-state volume of distribution)” value ([2]; 10 mg/kg intravenous) was 0.0845 L/kg, the T1/2β ([2]; 1 or 10 mg/kg intravenously) was 10.3 days and the “contribution of the initial phase (α) to the total AUC” value ([2]; 1 or 10 mg/kg intravenously) was < 2%. The “volume of distribution at steady state (Vss)” value ([2]; intravenous) was “very low”, the “Clonogenic Assay with 1.15.1-AE IC50” value [3] was “No effect” and the “Clonogenic Assay with 1.15.1-AE IC50” value [4] was “No growth”. The “Clonogenic Assay with 1.15.1-AE IC50” value [5] was “No effect”, the “Clonogenic Assay with 1.15.1-AE IC50” value [6] was “No growth” and the “Clonogenic Assay with 1.15.1-AE IC50” value [7] was 0.34 µg/mL. For the same substance, the IC50 [7] was 2.4 nM, the “Clonogenic Assay with 1.15.1-AE IC50” value [8] was “No growth” and the “Clonogenic Assay with 1.15.1-AE IC50” value [9] was “No effect”. The “Clonogenic Assay with 1.15.1-AE IC50” value [10] was 0.207 µg/mL, the IC50 [10] was 1.4 nM and the “Clonogenic Assay with 1.15.1-AE IC50” value [11] was “No effect”. For the same substance, the “Clonogenic Assay with 1.15.1-AE IC50” value [12] was 0.296 µg/mL, the IC50 [12] was 2 nM and the “Clonogenic Assay with 1.15.1-AE IC50” value [13] was “No effect”. For the same substance, the “Clonogenic Assay with 1.15.1-AE IC50” value [14] was “Inconclusive”.
